Measured values taken from publication doi:10.1101/2023.03.10.531533 (bioRxiv, 2023).

Columns and labels:
[1] = molecular target: recombinant SARS-CoV-2 S-6P spike protein (SARS-CoV-2 Wuhan, UniProt P0DTC2, stabilised); assay: ELISA
[2] = molecular target: recombinant prefusion stabilized SARS-CoV-2 spike protein (S-2P) (SARS-CoV-2 Wuhan, UniProt P0DTC2, stabilised); assay: HDX-MS
[3] = molecular target: SARS-CoV-2 Wuhan spike protein on HEK293T cells (SARS-CoV-2 Wuhan, UniProt P0DTC2); assay: flow cytometry on cells

Measured: binding result

B1: VHH R3DC23 (VHH)
VHH: QVQLQESGGGLVQAGDSLTLSCAVSGRIFSTYTMGWFRQAPGKEREFVAAVRWGAGTIYYADSMKGRFTISRDSAKNTVDLQMNSTKPEDTAVYYCGAAYVSKANYGSLWYQDSRRYDYWGQGTQVTVSS
binds: [1] | [2] | [3]
